Measurements taken from patent US20090305255.

Tests used:
[1] = biological target: SAKI (Substrate of AIM-1 kinase)
[2] = biological target: H3 histone, P68431

Sequence of SAKI (Substrate of AIM-1 kinase) (chain, as listed by the source): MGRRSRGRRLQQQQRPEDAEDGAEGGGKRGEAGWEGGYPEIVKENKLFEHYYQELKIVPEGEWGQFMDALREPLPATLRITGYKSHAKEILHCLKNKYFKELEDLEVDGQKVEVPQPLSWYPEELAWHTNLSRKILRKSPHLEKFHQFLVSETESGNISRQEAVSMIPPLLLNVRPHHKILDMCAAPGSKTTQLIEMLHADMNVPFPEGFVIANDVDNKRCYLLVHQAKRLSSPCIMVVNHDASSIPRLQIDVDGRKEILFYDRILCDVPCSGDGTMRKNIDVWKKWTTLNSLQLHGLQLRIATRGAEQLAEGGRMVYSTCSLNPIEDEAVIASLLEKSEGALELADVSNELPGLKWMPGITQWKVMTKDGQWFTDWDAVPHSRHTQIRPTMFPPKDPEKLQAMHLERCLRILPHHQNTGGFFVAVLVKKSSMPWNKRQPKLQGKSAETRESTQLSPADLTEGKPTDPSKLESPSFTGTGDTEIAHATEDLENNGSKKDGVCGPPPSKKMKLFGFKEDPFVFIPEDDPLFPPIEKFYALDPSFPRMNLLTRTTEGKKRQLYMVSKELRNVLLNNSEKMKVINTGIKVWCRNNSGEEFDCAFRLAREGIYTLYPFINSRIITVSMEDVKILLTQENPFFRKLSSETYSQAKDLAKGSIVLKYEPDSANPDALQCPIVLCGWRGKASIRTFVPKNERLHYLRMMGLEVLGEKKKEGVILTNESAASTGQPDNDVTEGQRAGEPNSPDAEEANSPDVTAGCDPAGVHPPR

Row | Protein | immunoblotting with the anti-H3 histone Ser-10 phosphorylation site antibody after expression of the AIM-1 kinase-deficient mutant protein in HeLa [1] | in-vitro phosphorylation experiments [2]
1 | AIM-1 (Aurora and Ipl1-like midbody-associated protein) (protein) MAQKENSYPWPYGRQTAPSGLSTLPQRVLRKEPVTPSALVLMSRSNVQPTAAPGQKVMENSSGTPDILTRHFTIDDFEIGRPLGKGKFGNVYLAREKKSHFIVALKVLFKSQIEKEGVEHQLRREIEIQAHLHHPNILRLYNYFYDRRRIYLILEYAPRGELYKELQKSCTFDEQRTATIMEELADALMYCHGKKVIHRDIKPENLLLGLKGELKIADFGWSVHAPSLRRKTMCGTLDYLPPEMIEGRMHNEKVDLWCIGVLCYELLVGNPPFESASHNETYRRIVKVDLKFPASVPMGAQDLISKLLRHNPSERLPLAQVSAHPWVRANSRRVLPPSALQSVA | there was a protein that is seemingly phosphorylated by AIM-1 in the region close to 100 kDa | both AIM-1 and Aik phosphorylated H3 histone
2 | Aik (protein) MDRSKENCISGPVKATAPVGGPKRVLVTQQFPCQNPLPVNSGQAQRVLCPSNSSQRIPLQAQKLVSSHKPVQNQKQKQLQATSVPHPVSRPLNNTQKSKQPLPSAPENNPEEELASKQKNEESKKRQWALEDFEIGRPLGKGKFGNVYLAREKQSKFILALKVLFKAQLEKAGVEHQLRREVEIQSHLRHPNILRLYGYFHDATRVYLILEYAPLGTVYRELQKLSKFDEQRTATYITELANALSYCHSKRVIHRDIKPENLLLGSAGELKIADFGWSVHAPSSRRTTLCGTLDYLPPEMIEGRMHDEKVDLWSLGVLCYEFLVGKPPFEANTYQETYKRISRVEFTFPDFVTEGARDLISRLLKHNPSQRPMLREVLEHPWITANSSKPSNCQNKESASKQS | – | both AIM-1 and Aik phosphorylated H3 histone
